Molecular target: the molecule itself
Assay: SEC; analytical size-exclusion chromatography of refolded irisin; apparent molecular weight 28 kDa

B1: human irisin (FNDC5 residues 32-143) (natural protein, UniProt Q8NAU1 80-191, looked up)
chain: DSPSAPVNVTVRHLKANSAVVSWDVLEDEVVIGFAISQQKKDVRMLRFIQEVNTTTRSCALWDLEEDTEYIVHVQAISIQGQSPASEPVLFKTPREAEKMASKNKDEVTMKE
notes: irisin, human FNDC5 residues 32-143
stoichiometry N: 2

Source: publication PMC4726114, “DSF Guided Refolding As A Novel Method Of Protein Production” (Scientific Reports, 2016)
